Results from IntAct's records for PubMed 26455799.

B1: ADP-ribosylation factor-like protein 2 (Mus musculus), Q9D0J4 (parent)
chain: MGLLTILKKMKQKERELRLLMLGLDNAGKTTILKKFNGEDVDTISPTLGFNIKTLEHRGFKLNIWDVGGQKSLRSYWRNYFESTDGLIWVVDSADRQRMQDCQRELQSLLVEERLAGATLLIFANKQDLPGALSCNAIQEALELDSIRSHHWRIQGCSAVTGEDLLPGIDWLLDDISSRVFTAD
B2: Cilia- and flagella-associated protein 36 (Mus musculus), Q8C6E0 (parent)
chain: MAAEEEDEVEWVVESIAGFLRGPDWSIPILDFVEQKCEVFDDEEESKLTYTEIHQEYKELVEKLLESYLKEIGINEDQFQEACTSPLAKTRTSQAILQPVLAAEDFTIFKAMMVQKNIEMQLQAIRIIQERNGVLPDCLTDGADVVSDLEQEEMKILREVLRKSKEEYDQEEERKRKKQSSEAKMEELPVYTSEAEKMSNSQGDGEHFVQPPSEVKVHFANQSVQPLARKMELLPETSSLTQKGLKIPGLEHASMEGPIANLSALGTEELRQREHYLKQKRDKLLSMRKDTRTKQIQNTEQKGKPTREAEEMTEKPEMTAEEKQTLLKRRLLAEKLKEEVINK

Variants of: B1
Settings: with cfa36_mouse Cfap36, Q8C6E0

Effect of a mutation on the interaction, decreasing interaction strength:
MGLLTILKKMKQKERELRLLMLGLDNAGKTTILKKFNGEDVDTISPTLGANIKTLEHRGFKLNIWDVGGQKSLRSYWRNYFESTDGLIWVVDSADRQRMQDCQRELQSLLVEERLAGATLLIFANKQDLPGALSCNAIQEALELDSIRSHHWRIQGCSAVTGEDLLPGIDWLLDDISSRVFTAD
MGLDTILKKMKQKERELRLLMLGLDNAGKTTILKKFNGEDVDTISPTLGFNIKTLEHRGFKLNIWDVGGQKSLRSYWRNYFESTDGLIWVVDSADRQRMQDCQRELQSLLVEERLAGATLLIFANKQDLPGALSCNAIQEALELDSIRSHHWRIQGCSAVTGEDLLPGIDWLLDDISSRVFTAD

Variants of: B2
Settings: with arl3_mouse Arl3, Q9WUL7
Chain of arl3_mouse Arl3, Q9WUL7 (Q9WUL7 whole entry): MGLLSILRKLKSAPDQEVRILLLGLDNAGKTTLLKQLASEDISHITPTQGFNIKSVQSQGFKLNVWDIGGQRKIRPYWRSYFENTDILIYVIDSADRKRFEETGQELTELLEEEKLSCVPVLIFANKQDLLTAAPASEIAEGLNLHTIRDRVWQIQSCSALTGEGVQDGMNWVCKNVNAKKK

Effect of a mutation on the interaction, decreasing interaction strength:
E44R;E45R
L65D;C83R
L65D;C83R;V100H
E44R;L48R
